Source: the DeepSol protein solubility set

Experiment: soluble on expression in E. coli; label from the status in PepcDB or PDB records

| Sequence | soluble on expression in E. coli |
| --- | --- |
| MSSAPPAPRVIAVVGPTAAGKSDLGVFLAQRLGGEVVNADSMQLYRGMDIGTAKLTPEERGGVPHHLLDIWDVTVTASVAEYQRLARERIDALLAEGRWPILVGGSGLYVRGAVDNLEFPGTDPGIRARLEEELELRGPGALHARLAVADPEAARAILPSNGRRIVRALEVIEITGRPFTANLPGHDSVYDTVQIGVDVARPELHERIALRVDRMWEAGLVDEVRALEAQGLREGRTASRALGYQQVLAALAGECTLDEARAETVRATKRFARRQDSWFRRDPRVHWLSGGVADRTELPRLALSLVERPVTALEHHHHHH | not soluble |
| MSSARLVIAGLNGGTGKTILSLGTVRALTNAGHSVKPFKKGPDYIDAEWLGLAAGRAATNLDPFFLDAARLQSLFLHASAGASISIIEGNRGLYDGRDVTGSCSTAELARILDSPVVLAMDCTKMTRTAAAILSGVAAFEPGVKLAGVVLNRTANERHRSMLRQCIEHYTDIPVLGALPRLRDNPIPERHMGLVSDREFAQCAGELDRVAQFVAQHVDVERMAEIARSAQPLASNEPFWPVVAEGDGVRPRIGYVRDAALWFYYEENLEALRQAGADLVELRIIDGDPWPTLDGLYLGGGFPETLASELSACRERLAGIREAALAGLPVYAECGGFMVLGESIVMDGVEYPMSGVFPVQTVFHPKPQGLGYVEAEVVAENPFFPQGMVFRGHEFHYSACRPRDGGAVTHALRLNPGTGMGGGADGLVQANTFAAYTHIFGPAVQGWAERFVRAARGHRDQLNKGTDLSLEHHHHHH | not soluble |
| MSSDVRFTDFKSDKQPTWCPGCGDFGTMNGMMKALAETGNDPDNTFIVAGIGCSGKIGTYMHSYALHGVHGRALPVGIGVKMANPDLEVMVSGGDGDGYSIGAGHFIHAVRRNVDMSYVVMDNRIYGLTKGQASPTSREDFETSTSPDGPNQPPVNPKALALASGATFIAQSFSSNAQRHAEIVQKAVEHDGFGFVNVYSPCVTFNDVDTYDYFRDAIVDLDETDHDPADRDQAKDKILESEKEYMGVLYQDEDSVPFEEREGVEGSMAEIPDGAPEGAMDLVREFY | not soluble |
| MSSEKRVGMVEKSNNKRQRVNQVPVFSINDHHDVLVEILRRLDGSSLCSAACVCRLWSAVARNDSIWEELCFRQVSPRPSLSLRSVVSALGGYRCLYFLCIRPVLARLPKLLWTRDQLQLSLSLYCVHYYERLYVGAWLGDAPPSSLIFLRKPVNVV | soluble |
| MSSETFYKTQQDLRKAESHASHAAGGNTPANSNVSAMKVTPNLLIQFGDTAANSTNQSIVDEHTDKAKAIEERKANLPLPDQPPVASDWQSADQRAVNVGSGGVQGSVSGESNTALRDPATAGSSARMSGEELHKETQPTGNVGRQATEGLSDIPGDAKARK | not soluble |
| MSSFIEMIENITPDVYESLKLAVEIGKWSDGRKLTQEQRELSLQALIAWEAQNLPEDQRTGYMGPQECASKSAPVPNILFKSDAIH | not soluble |
| MSSGNIHIHSMTGFANAAAECGSKRINLDLRAVNHRFLDIQIRMPDDLRYLESGIREKISSHIARGKVECKIQIQDAENGSQSLELNRDLVGQLAEINKDLRKHHDLAKLGVADILRFPGVLASQRENTEELAKSITELTEKALKDFTAARKREGKKLGEHLLQRLEAMEEIIDALSELFPTLLETHKEKIRARLVEAVGSIDNDRLQQEFALFIQKSDIDEEFSRLRTHIAEVRRIVTEHKGSSGKRLDFLMQELNREANTLGSKSIAAECTQASVELKVLIEQMREQVQNIE | not soluble |
| MSSHESLFDYEATLQACARGEKQALQRLYLQESARLLGVAQRLVRDSALAEDIVHDAFLKIWTHAASFDASRGSARGWIFSVTRHLALNTLRNTAREVRVEDDGSDDHHEQATLEGWQETGDAFDWRVNPGRMISCMEQLEPVRRNCIFHAYVDGYSHQEIAQKIGAPLGTVKAWIKRSLTALRECMG | not soluble |
| MSSIGKEDIYESDGAASQVQKSEPENDNPTHPDIELISVDVDEALKKYKNRVLNLTSSDFSDSIAKKRRHAFGNNQYVLEVTGAGFSGTETAAEKLNRILYEVADLNEQIRADENLKTDLLNAEVLENLEKEVKTLQVAQSNGKTARVEHDVELPNVRTDSKVATLENRLRRIEQVIGSSVIPSAPVLDTIEDLKLRCETLNHSYVSGLEQRLNMMLTKLEKIDETRANNDIDENLDKKVDEILELMQKWDVACSSLPSNVNKVKALNRLHEQVQHFAGGLSHLKTIREKLEKEVAQGREAIIEYESQGKQEIGSVVEKLKLLEAKVADLK | not soluble |
| MSSIKTSPTKKTSESTTKQDTPNDQTNIENFDEEPSMLSDPEDYLEENETLDMNLSKGDQKVWLVKLPKYLMDDWSNPDSMNGQQLGNVKIKKDARGKLQVKLLLDNKNDRIPKEYDIKMLNTQVRNSYVFTEENLKKFKQEVTEVSDMPEQPQLKELNPEKKKFQVRRKFKYFRVQKEGENGQPVKKYIPFVKTIPKKTSLMGKVCHDCTVVPARTGSKHGESLMKHQNMTQGKERPKVTLLNEIPGVIQSNAGPSIKGNAASIFLKSTQGKNKSEGRTIRMPKKDLLDLLFRLFEEYEYWSMKGLKERTRQPESYLKESLESIATLIKRGPYTSKYTLKAEYRRLRDAERAVRLGLDEDDQNKENNEDEDEDEEMEDVV | soluble |
| MSSITKSRSTKKLSQVIVEQLIETIQSGEFKIGEKIPTELELIEQFDVSRSVIREAITELRSLGFVETRHGIGTFVKEQNIEQNFLLSNASLETINDIVALLELRISLESEAVFLASERRKNKHLEKMKIALNDFEAHISSGENDGTVKADYDFHIAIAEASGNQYFVDFLKYLGEKIIPRARVKSIEQSPENREEYLKTVHHDHVNIYNAILDQDGLLARQMMRAHLSKSIKKFKQ | not soluble |
| MSSKYNSLKLVKVKNVGDFVYKVSLNRPSKFNALNMVIWKEIGDCFQLIDEDPECRVVILQGEGKHFCSGLDLSEVTFLNGEEADDSARRGRSILRTIKFMQKQFTYIDECSKPVILAMHGYCLGAALDIATACDVRVATKDAVLSVKEVDIGMAADVGTLNRLPKIVGNHSWIKDISLSARHFSAGEALQFGLLSRVYDTREEMINEVLKMAKLIALKSPVGVQGTKNALNYARDHTVENSLNYVATWNMSQLFTDDIMKASMASLSKQPTPPFSKL | not soluble |
| MSSLTLTDKVSKMIHQDILSGKLKPGQKLVVAELKERYNVGASPIREALVQLSWNKYVKLEPQKGCWVASISLSELKELFESLRTIGQVLLAKAITNGNENWELNVLTSFHKLNKINLQDAKIEELREWENRYTDFHNSLLEGAQSPIMYQFYQDISHQITRYRHLNNNPQVISETYAQYLEEHEIMMKLTLSRDSEQAIKYLNNHYSKASDLISTYFSA | not soluble |
| MSSPARQYRGRSSEQRAAERRARLLEAGLQVFGTVGGEKATMTAICAEAKLTERYFYESFRDRDDLLVQVIEGIAAEIAEAARVTLQTVTGDPEVRARAAIATFVDILTADPRKGRVSIIESAAAEPLRTRRRELLRAFALLVAEESKELYGDRAWSSPQDEITALLFVGGLAELMTAWLNGEIEVSPEQIVDAATYQFTSTAHR | not soluble |
| MSSPYSPREWLQLNMQQQGLLQPQTSVGQLIACLGYVQIDSINVVERAHHHVLHSRMPQYQPQMLDTALAQGEIFEYWSHAAAYLPIADYRFSLQRKQQLQNGGKHWFEPDDNAMQEVRARIRAEGPLKASDFEHTEGKNGAWWDWKPAKKALEQLFMRGELMVVRREKFQKCYDLTERVLPSHINTLAPSDSEFARHLISRYLDAHAFGSAAQIAYLRKGIKANVNQQLAAMQSQGELASFKAEGQWYFYRPELQITAAMPNRVWLLNPFDNLLIQRQRLKQWFDFDYQIEVYVPAEKRQYGYYSLAILWRDRFVGRVDVKADRQSGLLLLQQLTLEEGFDGMDEGFCSAFEATVSEYARFNICSRWKLVKANHKAFKLEHHHHHH | not soluble |
| MSSQIPFTVDHVGSFLRPETIKKARKKVQAGALSQAELRLIEDEEIKALVAKQKAGGLRGITDGEFRRGFWHIDFLEGLNGVTGYIPETGYNQTFHGKAAPAYNIRVVDKISFPTQHPFLEDFSFLKEVVEVGDGTVAKATIPSPTMILRQEILSNDGTSRIQTIYPEIGAFYKDLAQTYKDAIAAFYERGCRYLQFDDTNWAFLADQTKQEELRAKGIQPEEIAQVCTTIINEALAGKPEDLTVTTHICRGNHASSWLFSGGYEPIAKELFATNYDGFFLEYDSDRAGDFSPLRHWQNNGSKVVLGLVTSKFPELEETEQVKARIEEAQQFVPLENLSISPQCGFASTEEGNRLTEKEQWRKVQLLQEIAREVWLEHHHHHH | soluble |
| MSSRKGTRSSRIVTLERSANSSLSNNGGGDDSFGSTLLETSRLQEKDHLTSLNSRLATYIDKVRQLEQENNRLQVQIRDIEVVEKKEKSNLADRFEAEKARLRRALDSAQDELAKYRIEYDAAKVEVKKLKPQVEKLERELAGAEEQALHAQSIADQSQAKQKTLQARNDKLVVENDDLKKQNITLRDTVEGLKKAVEDETLLRTAANNKIKALEEDLAFALQQHKGELEEVRHKRQVDMTTYAKQINDEYQSKLQDQIEEMRAQFKNNLHQNKTAFEDAYKNKLNAARERQEEAVSEAIHLRARVRDLETSSSGNASLIERLRSELDTLKRSFQEKLDDKDARIAELNQEIERMMSEFHDLLDVKIQLDAELKTYQALLEGEEERLNLTQEAPQNTSVHHVSFSSGGASAQRGVKRRRVVDVNGEDQDIDYLNRRSKLNKETVGPVGIDEVDEEGKWVRVANNSEEEQSIGGYKLVVKAGNKEASFQFSSRMKLAPHASATVWSADAGAVHHPPEVYVMKKQQWPIGDNPSARLEDSEGDTVSSITVEFSESSDPSDPADRCSIM | not soluble |
| MSSRPPFGIVKPSKPTGNPSSGSSELDSTAQPPQERGTDLQRASSGSDVHGHPSPGSQSHNLTSAQSGGRNAHKDLHERHVHPSQGYQRHGSKAPAHGHPSSQGARRSQLKLSNFPKLLANLMQDTKATQDFNSKYHSDFKKSKNSLITGESIFKFSHGIINFFFGRTSASCASNQDTLQPTASTMSDGEPEEDKVKLCGNRLEVGVTDNLAGTQRRKEQQQLQGAQAKKQQAPQRVVNRKANHQKLSRKRRYAPYKDDVIGAHGFFNNMR | not soluble |
| MSSRYSERNGLSETEKMTLPKVRKRKAQLVDEIEALKNEVREVDEELDQVYYTHPKSKEYHKIVVNGRKKFNQDPWKALDWLASRNVVAKDPQALALWMKAGEGLSKSAIGEILGDNRPFALETLDRFTKEHKLHDVPIVPALRQYLFSFRLPGESQKINRILEKFAEVYANQNPSYGNADQAHTVAYSCIMVNTLLHNPNVKDKPSLEKYIEMNEQLLEKGAITIEQLTEVYESVSVTQFKIPDEVSTSGKGTVNDILLHAEREGWLFKQSSNPLFSGALSWKKRWFVLSENCLYYFDQMTDKEPKGIITLANVGIRKVEAPSRPFMFEIFSLSDGQIKACKTEQDGRLVEGRHSIYKICAVNDEDMRSWINAISRMMAPQQHLLARPKSTH | soluble |
| MSSSNKESASDLIRAKDAGLLDIWALPSFDPHVEPEPEPEPEPVDEPAEMEEVPLDEVQPLTLEELESIRQEAWNEGFATGEKEGFHSTQLKVRQEAEVVLAAKVASLEQLMGHLLAPIAEQDTQIEKAVIHLVEHIARQVIQRELVTDSGQIASVLRDALKLLPMGAQNLRIFINPQDFLLVKAMRERHEEAWKIVEDEDLLPGGCRIETEHSRIDASVETRIALAISKMHDQLHEQVTHPAAADLSVDLDASPVSTAKTEDSDVDALDAP | not soluble |
| MSSSTSPFLRAISRLIKASFFALSKFSLNCMYKSIQAELLKITYLAFMVKAMIFIPKEKHVYSFGPDMKEVARAKPGEIIVFETLDALGGQIRSEEDTVEKIDFSRVNPATGPVYIEGAEKGKILKVKILEIEVNDRGVIVTAPGAGVLGDLVKAPKTKVCRIANGFVQFGEFKIPVRPMIGVIGVASPEEIPTGTPGRHGGNMDTNLITEGSTVYFPIFKDGAYLALGDLHAVMADGEVCVSACEVSGKVTVKTEVLSGSIEWPIVETSDAYYILVSEEDLEDAVREAVKQGVDILRRANELSWDEAYMLASLIMDVQISQLVDPRKTVRVRIPKQYLKMSLFLEHHHHHH | not soluble |
